# Key:
# [1] = molecular target: recombinant soluble urokinase plasminogen activator receptor (suPAR, aa 1-279) (UniProt Q03405); experiment: direct binding assay (format and antigen form not stated)
# [2] = molecular target: recombinant soluble urokinase plasminogen activator receptor (suPAR, aa 1-279) (UniProt Q03405); experiment: ELISA on suPAR, bound Biotin-ATN-658 detected with HRP-streptavidin
substance,measurement,setting,value
mAb ATN-658 (antibody),Kd,[1],1000 pM
same,EC50 (read off the curve),[2],200 pM

# From patent US20090180952A1
